Experimental data published in article PMC4245848, “The Aspergillus nidulans Zn(II)2Cys6 transcription factor AN5673/RhaR mediates L-rhamnose utilization and the production of α-L-rhamnosidases”.

What was measured:
[1] = molecular target: T1, His6::RhaR (1-159*) (Aspergillus nidulans (cDNA from strain AR198)) (UniProt A0A0A1I536); assay: EMSA; details: 25 mM HEPES pH 7.9, 50 mM KCl, 5 mM MgCl2, 1 mM DTT, 0.1 mM EDTA, 1 ug salmon sperm DNA, 20 ul, 4 C 30 min; 5-8% native PAGE in 0.5x TBE at 4 C, ethidium …
T1 sequence: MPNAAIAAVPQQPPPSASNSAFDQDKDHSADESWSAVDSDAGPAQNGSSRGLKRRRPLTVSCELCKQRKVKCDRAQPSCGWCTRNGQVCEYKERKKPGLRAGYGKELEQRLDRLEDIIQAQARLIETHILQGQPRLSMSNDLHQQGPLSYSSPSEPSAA

His6::RhaR (1-159*) = molecular target: T2, His6::RhaR (1-159*) (Aspergillus nidulans (cDNA from strain …, UniProt A0A0A1I536)); assay: EMSA; 25 mM HEPES pH 7.9, 50 mM KCl, 5 mM MgCl2, 1 mM DTT, 0.1 mM EDTA, 1 ug salmon sperm DNA, 20 ul, 4 C 30 min; 5-8% native PAGE in 0.5x TBE at 4 C, ethidium bromide; details: protein: recombinant; tags: N-terminal His6 (pQE-80L); chain copies: 2; blunt
T2 sequence: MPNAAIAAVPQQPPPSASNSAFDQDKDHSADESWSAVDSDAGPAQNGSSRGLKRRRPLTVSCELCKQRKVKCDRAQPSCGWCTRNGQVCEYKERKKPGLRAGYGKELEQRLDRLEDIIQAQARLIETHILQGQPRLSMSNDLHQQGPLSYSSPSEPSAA

AGATCTTCTCTGGGGAAGATCGACCGACCTGGTCCTGCAGAGCTCCAAGGCTTCCTCTCAGAAAGCCGATTAGTAGAAGCGGAGTCAAAGCAGGGTCAAGACGGACAATTAGAAGCCATGAATGGCGGATCCCAGCCCATGATCGCATACTGTGATCCAAAATCGACATAACTAAGTCACTTCCCTTCGCTTGTATCTGCCCAGCCATCCAACAACTCTA (double strand) [rhaAp 219 bp mut1]
binding [1]: binds more weakly

B1: 35-mer wild type (dsDNA)
DNA 1: AGATCTTCTCGGGGGAAGATCGACCGACCTGGTCC
DNA 2: GGACCAGGTCGGTCGATCTTCCCCCGAGAAGATCT
binding result (His6::RhaR (1-159*)): binds

B2: 35-mer mut1 mut2 (dsDNA)
DNA 1: AGATCTTCTCTGGGGAAGATCGACAGACCTGGTCC
DNA 2: GGACCAGGTCTGTCGATCTTCCCCAGAGAAGATCT
binding result (His6::RhaR (1-159*)): no binding
